{"source": "paper PMC7566454", "about": "“Sorcin is an early marker of neurodegeneration, Ca^2+ dysregulation and endoplasmic reticulum stress associated to neurodegenerative diseases” (Cell Death & Disease, 2020)", "molecules": {"B1": {"name": "RyR2 peptide corresponding to calmodulin-binding site CaMBD1 (peptide)", "peptide": "FRYNEVMQALNMSAALTARKTREFR", "notes": "source: synthetic peptide (Biomatik, purity > 90%)"}, "B2": {"name": "GST-Sigma-1 receptor (cytosolic domain, residues 1-138) (domain or fragment, UniProt Q99720 1-138, looked up)", "chain": "MQWAVGRRWAWAALLLAVAAVLTQVVWLWLGTQSFVFQREEIAQLARQYAGLDHELAFSRLIVELRRLHPGHVLPDEELQWVFVNAGGWMGAMCLLHASLSEYVLLFGTALGSRGHSGRYWAEISDTIISGTFHQWRE", "notes": "Sigma-1 receptor, 'cytosolic domain' residues 1-138, cloned in frame with GST in pGEX4T1; pGEX4T1 puts GST at the N-terminus (surmised); also called Sigma-1 receptor (1–138); source: E. coli BL21(DE3), purified (GSTrap HP)"}, "B3": {"name": "RyR2 peptide corresponding to calmodulin-binding site CaMBD3 (peptide)", "peptide": "ALRYNVLTLVRMLSLKSLKKQMKRMKKMTVK", "notes": "as for B1"}}, "key": {"human Sorcin [1]": {"molecular_target": "T1, human Sorcin (human, UniProt P30626 1-198)", "T1 construct": "Sorcin, human", "T1 sequence (looked up)": "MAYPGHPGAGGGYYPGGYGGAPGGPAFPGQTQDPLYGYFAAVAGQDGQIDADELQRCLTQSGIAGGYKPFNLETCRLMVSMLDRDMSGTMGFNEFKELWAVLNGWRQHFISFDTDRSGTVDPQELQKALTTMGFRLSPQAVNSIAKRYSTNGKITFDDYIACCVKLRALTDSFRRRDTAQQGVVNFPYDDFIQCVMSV", "assay": "SPR; FastStep (SensiQ Pioneer); human Sorcin amine-coupled to a COOH5 chip (2000 RU); peptides 1.56-100 μM; 20 mM Hepes pH 7.4, 150 mM NaCl, 0.005% P20, 100 μM CaCl2; best fits with 2 sites"}, "human Sorcin [2]": {"molecular_target": "T1, human Sorcin", "assay": "SPR; OneStep as a6 but in buffer with 1 mM EDTA (HBS-PE)", "conditions": "both partners purified"}, "human Sorcin [3]": {"molecular_target": "T1, human Sorcin", "assay": "SPR; OneStep (SensiQ Pioneer); GST-Sigma-1 receptor (1-138) amine-coupled to a COOH5 chip (125 RU), signal on GST (80 RU) subtracted; Sorcin up to 5 μM; 20 mM Hepes pH 7.4, 150 mM NaCl, 0.005% P20 with CaCl2 (500 μM in the results, 100 μM in the methods); fit with 1 site", "conditions": "both partners purified"}}}
{"molecule": "RyR2 peptide corresponding to calmodulin-binding site CaMBD2", "values": [{"measurement": "Kd", "setting": "human Sorcin [1]", "result": 120, "unit": "nM"}]}
{"molecule": "B1", "values": [{"measurement": "Kd", "setting": "human Sorcin [1]; both partners purified", "result": "> 10000", "unit": "nM"}]}
{"molecule": "B2", "values": [{"measurement": "Kd", "setting": "human Sorcin [2]", "result": 12000, "unit": "nM"}, {"measurement": "Kd", "setting": "human Sorcin [3]", "result": 720, "unit": "nM"}]}
{"molecule": "B3", "values": [{"measurement": "Kd", "setting": "human Sorcin [1]; both partners purified", "result": 480, "unit": "nM"}]}
